Results on ten molecules are retold here after patent US20220195012A1.

Among the targets are AP C3-convertase (C3bBb) (UniProt P01024); C4b (UniProt P0C0L4); C3b (UniProt P01024).
Assay in all cases: cell-based or functional assay
Substrate in assay [1]: CP C3-convertase (C4b2a) (UniProt P0C0L4)

Numbering of substitutions follows the chain as printed. In names and notes the source's numbering stands. Some results are limits rather than exact numbers.

AP C3-convertase (C3bBb), sequence (P01024 23-667 limits assumed, chain 1 of 3): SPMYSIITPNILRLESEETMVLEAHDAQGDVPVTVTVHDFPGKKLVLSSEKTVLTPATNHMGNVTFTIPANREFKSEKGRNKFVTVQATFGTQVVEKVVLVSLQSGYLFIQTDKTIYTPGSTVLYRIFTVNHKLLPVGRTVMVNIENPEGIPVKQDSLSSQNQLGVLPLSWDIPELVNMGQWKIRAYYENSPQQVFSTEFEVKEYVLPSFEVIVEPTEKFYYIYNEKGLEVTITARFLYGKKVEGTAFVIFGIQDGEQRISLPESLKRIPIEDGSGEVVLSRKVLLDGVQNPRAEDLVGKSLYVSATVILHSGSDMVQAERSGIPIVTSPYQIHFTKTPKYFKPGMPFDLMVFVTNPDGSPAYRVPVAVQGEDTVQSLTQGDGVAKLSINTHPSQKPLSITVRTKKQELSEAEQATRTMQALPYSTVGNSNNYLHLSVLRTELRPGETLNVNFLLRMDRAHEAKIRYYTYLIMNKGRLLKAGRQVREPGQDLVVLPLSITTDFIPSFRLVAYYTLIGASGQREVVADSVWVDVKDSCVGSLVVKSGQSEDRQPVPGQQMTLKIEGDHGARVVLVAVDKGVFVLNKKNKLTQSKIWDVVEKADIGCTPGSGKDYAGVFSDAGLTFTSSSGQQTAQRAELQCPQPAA
AP C3-convertase (C3bBb), sequence (P01024 749-1663 limits assumed, chain 2 of 3): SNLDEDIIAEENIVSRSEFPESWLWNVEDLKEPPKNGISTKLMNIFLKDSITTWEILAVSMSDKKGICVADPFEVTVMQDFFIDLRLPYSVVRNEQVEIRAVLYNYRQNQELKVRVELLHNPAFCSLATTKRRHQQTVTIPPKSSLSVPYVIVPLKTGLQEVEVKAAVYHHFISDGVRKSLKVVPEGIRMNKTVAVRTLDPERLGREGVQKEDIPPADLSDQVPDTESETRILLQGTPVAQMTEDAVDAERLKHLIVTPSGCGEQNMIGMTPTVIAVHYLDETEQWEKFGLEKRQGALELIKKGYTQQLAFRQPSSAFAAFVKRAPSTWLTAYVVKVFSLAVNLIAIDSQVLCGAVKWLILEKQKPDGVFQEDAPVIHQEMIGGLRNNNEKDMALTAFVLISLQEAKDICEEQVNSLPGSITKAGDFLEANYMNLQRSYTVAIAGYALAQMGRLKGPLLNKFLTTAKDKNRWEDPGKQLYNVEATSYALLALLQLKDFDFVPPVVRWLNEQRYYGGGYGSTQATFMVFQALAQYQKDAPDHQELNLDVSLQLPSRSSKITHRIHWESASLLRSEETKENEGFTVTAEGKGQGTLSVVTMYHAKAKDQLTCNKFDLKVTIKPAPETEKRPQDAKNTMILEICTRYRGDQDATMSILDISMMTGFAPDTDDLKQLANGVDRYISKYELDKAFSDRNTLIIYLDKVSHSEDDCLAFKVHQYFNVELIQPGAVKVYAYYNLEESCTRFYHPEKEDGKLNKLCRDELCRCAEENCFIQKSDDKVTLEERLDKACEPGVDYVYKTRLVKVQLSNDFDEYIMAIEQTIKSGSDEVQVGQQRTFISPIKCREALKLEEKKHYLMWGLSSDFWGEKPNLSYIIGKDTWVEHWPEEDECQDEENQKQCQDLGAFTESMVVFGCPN
AP C3-convertase (C3bBb), sequence (P00751 260-764 limits assumed, chain 3 of 3, further chain): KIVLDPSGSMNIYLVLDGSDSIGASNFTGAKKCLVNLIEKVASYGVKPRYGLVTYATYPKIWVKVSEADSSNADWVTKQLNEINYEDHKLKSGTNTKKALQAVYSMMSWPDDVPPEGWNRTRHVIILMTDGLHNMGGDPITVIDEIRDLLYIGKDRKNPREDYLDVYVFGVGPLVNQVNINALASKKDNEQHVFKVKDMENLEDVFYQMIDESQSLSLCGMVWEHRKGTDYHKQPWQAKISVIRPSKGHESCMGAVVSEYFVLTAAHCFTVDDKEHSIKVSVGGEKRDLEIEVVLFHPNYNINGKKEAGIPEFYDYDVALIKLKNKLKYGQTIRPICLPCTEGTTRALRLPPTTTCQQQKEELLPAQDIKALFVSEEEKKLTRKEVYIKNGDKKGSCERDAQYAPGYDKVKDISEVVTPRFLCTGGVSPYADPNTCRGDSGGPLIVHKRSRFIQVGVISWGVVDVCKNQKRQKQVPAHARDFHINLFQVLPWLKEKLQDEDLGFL
C3b, sequence (P01024 23-667 limits assumed, chain 1 of 2): as the sequence (P01024 23-667 limits assumed, chain 1 of 3) above
C3b, sequence (P01024 749-1663 limits assumed, chain 2 of 2): as the sequence (P01024 749-1663 limits assumed, chain 2 of 3) above
C4b, sequence (P0C0L4 757-1446 limits assumed, chain 1 of 3): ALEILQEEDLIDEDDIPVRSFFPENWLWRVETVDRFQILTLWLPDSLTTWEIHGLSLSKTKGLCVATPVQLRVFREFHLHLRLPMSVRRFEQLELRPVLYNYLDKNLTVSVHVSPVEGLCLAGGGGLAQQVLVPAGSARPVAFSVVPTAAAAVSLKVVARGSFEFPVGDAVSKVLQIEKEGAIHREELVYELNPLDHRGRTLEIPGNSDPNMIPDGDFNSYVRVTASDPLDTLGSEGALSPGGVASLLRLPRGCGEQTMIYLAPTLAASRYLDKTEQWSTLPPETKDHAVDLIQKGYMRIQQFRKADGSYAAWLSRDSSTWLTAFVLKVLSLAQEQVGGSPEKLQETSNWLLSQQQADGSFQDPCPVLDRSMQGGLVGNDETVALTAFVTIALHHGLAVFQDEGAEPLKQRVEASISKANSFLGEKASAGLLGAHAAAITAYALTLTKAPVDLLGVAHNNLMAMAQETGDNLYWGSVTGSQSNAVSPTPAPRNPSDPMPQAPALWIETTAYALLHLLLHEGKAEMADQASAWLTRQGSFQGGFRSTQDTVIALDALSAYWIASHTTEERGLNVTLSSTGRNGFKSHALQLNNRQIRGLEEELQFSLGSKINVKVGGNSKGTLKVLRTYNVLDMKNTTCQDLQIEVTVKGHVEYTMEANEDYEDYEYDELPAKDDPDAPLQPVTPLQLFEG
C4b, sequence (P0C0L4 20-675 limits assumed, chain 2 of 3): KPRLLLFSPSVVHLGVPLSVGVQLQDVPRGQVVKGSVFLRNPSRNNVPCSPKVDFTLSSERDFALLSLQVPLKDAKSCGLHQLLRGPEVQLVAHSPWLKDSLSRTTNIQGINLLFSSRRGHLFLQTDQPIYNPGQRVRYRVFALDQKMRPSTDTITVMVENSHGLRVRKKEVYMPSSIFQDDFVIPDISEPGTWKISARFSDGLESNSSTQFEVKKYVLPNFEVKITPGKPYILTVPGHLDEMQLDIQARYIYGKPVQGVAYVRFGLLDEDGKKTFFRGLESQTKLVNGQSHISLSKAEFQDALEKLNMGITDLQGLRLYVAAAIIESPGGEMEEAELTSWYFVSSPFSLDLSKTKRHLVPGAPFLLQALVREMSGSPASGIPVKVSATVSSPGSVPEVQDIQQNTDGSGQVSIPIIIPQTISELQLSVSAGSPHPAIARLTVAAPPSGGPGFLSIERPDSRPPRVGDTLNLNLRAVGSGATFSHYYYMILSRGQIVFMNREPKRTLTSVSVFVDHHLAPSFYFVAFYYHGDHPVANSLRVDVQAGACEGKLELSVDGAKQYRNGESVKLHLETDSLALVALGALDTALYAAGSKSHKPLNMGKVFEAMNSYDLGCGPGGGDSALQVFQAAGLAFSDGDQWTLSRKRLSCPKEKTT
C4b, sequence (P0C0L4 1454-1744 limits assumed, chain 3 of 3): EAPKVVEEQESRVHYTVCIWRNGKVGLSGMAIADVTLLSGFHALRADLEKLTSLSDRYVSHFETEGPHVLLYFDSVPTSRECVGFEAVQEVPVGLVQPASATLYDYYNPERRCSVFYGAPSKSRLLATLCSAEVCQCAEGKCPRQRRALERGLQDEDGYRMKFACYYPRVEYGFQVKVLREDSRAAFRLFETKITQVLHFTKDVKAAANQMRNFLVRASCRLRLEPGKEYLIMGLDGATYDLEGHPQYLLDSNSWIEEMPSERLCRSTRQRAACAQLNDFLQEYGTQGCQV
CP C3-convertase (C4b2a), sequence (P0C0L4 757-1446 limits assumed, chain 1 of 4): as the sequence (P0C0L4 757-1446 limits assumed, chain 1 of 3) above
CP C3-convertase (C4b2a), sequence (P0C0L4 20-675 limits assumed, chain 2 of 4): as the sequence (P0C0L4 20-675 limits assumed, chain 2 of 3) above
CP C3-convertase (C4b2a), sequence (P0C0L4 1454-1744 limits assumed, chain 3 of 4): as the sequence (P0C0L4 1454-1744 limits assumed, chain 3 of 3) above
CP C3-convertase (C4b2a), sequence (P06681 244-752 limits assumed, chain 4 of 4, further chain): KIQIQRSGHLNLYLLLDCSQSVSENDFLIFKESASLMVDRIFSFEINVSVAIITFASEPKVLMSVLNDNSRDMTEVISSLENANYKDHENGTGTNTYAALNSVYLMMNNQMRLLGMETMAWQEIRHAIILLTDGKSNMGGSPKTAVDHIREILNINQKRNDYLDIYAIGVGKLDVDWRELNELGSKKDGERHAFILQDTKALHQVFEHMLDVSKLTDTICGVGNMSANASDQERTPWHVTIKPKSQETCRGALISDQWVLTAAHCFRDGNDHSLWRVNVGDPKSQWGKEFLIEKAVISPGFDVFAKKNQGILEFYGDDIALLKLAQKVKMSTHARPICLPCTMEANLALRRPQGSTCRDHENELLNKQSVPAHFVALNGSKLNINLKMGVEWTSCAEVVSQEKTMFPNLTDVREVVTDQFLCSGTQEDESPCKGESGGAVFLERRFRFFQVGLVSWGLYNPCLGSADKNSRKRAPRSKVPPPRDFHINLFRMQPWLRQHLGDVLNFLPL

B1: D2M2-4 (Tetra) (protein)
chain: CEVPTRLNSASLKQPYITQNYFPVGTVVEYECRPGYRRQPSLSPKLTCLQNLKWSTAVEFCKKKSCPNIRDPLNGQAVPANGTYEFGYQMHFICNEGYYLAGEEILYCELKGSVAIWSGKPPICEKVKCTPPPKIKNGKHTFSEVEVFEYLDAVTYSCDPAPGPDPFSLIGESTIYCGDNSVWSRAAPECKVVKCRFPVVENGKQISGFGKKFYYKATVMFECDKGFYLDGSDTIVCDSNSTWDPPVPKCLKVL
On to B1, for which, in the assay with AP C3-convertase (C3bBb), the AP-DAA, fold increase compared to D2M2-4 turned out to be 12.5 fold and the AP-DAA, fold less compared to DAF was found to be 138 fold.

B2: D2D3M3M4 (L205K) (protein)
chain: CEVPTRLNSASLKQPYITQNYFPVGTVVEYECRPGYRREPSLSPKLTCLQNLKWSTAVEFCKKKSCPNPGEIRNGQIDVPGGILFGATISFSCNTGYKLFGSTSSFCKISGSSVQWSDPLPECREIYCTPPPKIKNGKHTFSEVEVFEYLDAVTYSCDPAPGPDPFSLIGESTIYCGDNSVWSRAAPECKVVKCRFPVVENGKQISGFGKKFYYKATVMFECDKGFYLDGSDTIVCDSNSTWDPPVPKCLKVL
For B2, in the assay with C4b, the C4b CFA: Time (min.) for 50% cleavage of C4B α′-chain turned out to be 433 min and the Relative C4b CFA was determined as 1.07. In the assay with C3b, the C3b CFA: Time (min.) for 50% cleavage of C3B α′-chain came out at 104 min and the Relative C3b CFA worked out at 0.8. In addition, in the assay with AP C3-convertase (C3bBb), the AP-DAA IC50 is > 0.01 µM and the Relative AP-DAA was found to be 0.2. Further, in assay [1], the CP-DAA IC50 was found to be 9.2 µM and the Relative CP-DAA worked out at 1.7.

B3: D2D3M3M4 (T200Y) (protein)
chain: B2 chain with T103Y, K108L
For the molecule B3, in the assay with C4b, the C4b CFA: Time (min.) for 50% cleavage of C4B α′-chain was 513 min and the Relative C4b CFA is 0.9. In the assay with C3b, the C3b CFA: Time (min.) for 50% cleavage of C3B α′-chain was 103 min and the Relative C3b CFA is 0.8. Further, in the assay with AP C3-convertase (C3bBb), the AP-DAA IC50 came out at 0.0037 µM and the Relative AP-DAA came to 0.56. In addition, in assay [1], the CP-DAA IC50 was 17.7 µM and the Relative CP-DAA was 0.9.

B4: D2D3M3M4 (K195Y) (protein)
chain: B2 chain with K98Y, K108L
As for B4, in the assay with C4b, the C4b CFA: Time (min.) for 50% cleavage of C4B α′-chain is > 540 min and the Relative C4b CFA is < 0.85. In the assay with AP C3-convertase (C3bBb), the AP-DAA IC50 is > 0.01 µM and the Relative AP-DAA was determined as 0.2. Besides, in assay [1], the CP-DAA IC50 was > 100 µM and the Relative CP-DAA is 6.2.

B5: D2D3M3M4 (F197I) (protein)
chain: B2 chain with F100I, K108L
In the assay with C4b, B5 yielded a C4b CFA: Time (min.) for 50% cleavage of C4B α′-chain of 96.7 min and a Relative C4b CFA of 7. In addition, in the assay with C3b, the C3b CFA: Time (min.) for 50% cleavage of C3B α′-chain came to 49.8 min and the Relative C3b CFA worked out at 1.7. In the assay with AP C3-convertase (C3bBb), this molecule gave an AP-DAA IC50 of 0.0044 µM and a Relative AP-DAA of 0.3. For the same molecule, in assay [1], the CP-DAA IC50 was 30.7 µM and the Relative CP-DAA amounted to 0.5.

B6: D2D3M3M4 (S199K) (protein)
chain: B2 chain with S102K, K108L
In the assay with C4b, B6 returned a C4b CFA: Time (min.) for 50% cleavage of C4B α′-chain of 181 min and a Relative C4b CFA of 2.5. In the assay with C3b, the C3b CFA: Time (min.) for 50% cleavage of C3B α′-chain is 18.9 min and the Relative C3b CFA is 4.4. Besides, in the assay with AP C3-convertase (C3bBb), the AP-DAA IC50 was found to be 0.0065 µM and the Relative AP-DAA was found to be 0.3. Besides, in assay [1], the CP-DAA IC50 was 23.7 µM and the Relative CP-DAA is 0.7.

B7: D2D3M3M4 (P216K) (protein)
chain: B2 chain with K108L, P119K
With B7, in the assay with C4b, the C4b CFA: Time (min.) for 50% cleavage of C4B α′-chain was found to be 93.3 min and the Relative C4b CFA turned out to be 5. Further, in the assay with C3b, the C3b CFA: Time (min.) for 50% cleavage of C3B α′-chain came out at 30.1 min and the Relative C3b CFA came out at 2.7. In the assay with AP C3-convertase (C3bBb), the AP-DAA IC50 was 0.0034 µM and the Relative AP-DAA is 0.6. In assay [1], the CP-DAA IC50 was determined as 21 µM and the Relative CP-DAA turned out to be 0.75.

B8: D2D3M3M4 (Multi-5) or DCP (decay-cofactor protein) (protein)
chain: B2 chain with F100I, K108L, P119K, E122I, R124E, E125K, I126V, Y127L
In the assay with C4b, B8 showed a C4b CFA: Time (min.) for 50% cleavage of C4B α′-chain of 3.1 min and a Relative C4b CFA of 3. For the same molecule, in the assay with C3b, the C3b CFA: Time (min.) for 50% cleavage of C3B α′-chain worked out at 3.3 min and the Relative C3b CFA was 1.5. In the assay with AP C3-convertase (C3bBb), the AP-DAA IC50 was 0.0024 µM and the Relative AP-DAA was determined as 1.3. In assay [1], the CP-DAA IC50 was found to be 12.7 µM and the Relative CP-DAA amounted to 1.3.

B9: D2D3M3M4 (Multi-1) (protein)
chain: B2 chain with K108L, E122I, R124E, E125K, I126V, Y127L
With B9, in the assay with C4b, the C4b CFA: Time (min.) for 50% cleavage of C4B α′-chain was determined as 493 min and the Relative C4b CFA was 1.07. Besides, in the assay with C3b, the C3b CFA: Time (min.) for 50% cleavage of C3B α′-chain came out at 27.3 min and the Relative C3b CFA worked out at 3. In the assay with AP C3-convertase (C3bBb), the AP-DAA IC50 was determined as 0.0019 µM and the Relative AP-DAA was 1.1. Besides, in assay [1], the CP-DAA IC50 came out at 22.6 µM and the Relative CP-DAA was found to be 0.7.

B10: D2D3M3M4 (T192E) (protein)
chain: B2 chain with T95E, K108L
B10: in the assay with C4b, the C4b CFA: Time (min.) for 50% cleavage of C4B α′-chain turned out to be 268 min and the Relative C4b CFA amounted to 8.7. In the assay with C3b, this molecule returned a C3b CFA: Time (min.) for 50% cleavage of C3B α′-chain of 74.3 min and a Relative C3b CFA of 1.1. In the assay with AP C3-convertase (C3bBb), the AP-DAA IC50 was found to be 0.0025 µM and the Relative AP-DAA was determined as 0.9. In addition, in assay [1], the CP-DAA IC50 was 15.5 µM and the Relative CP-DAA is 1.
